Laboratory results published in publication PMC3461514 (The Journal of Cell Biology, 2012).

B1: HEG1 cytoplasmic tail model protein (residues 1,274-1,381) (domain or fragment, human, UniProt Q9ULI3 1274-1381, looked up)
chain: RKNKNDISKLIFKSGDFQMSPYAEYPKNPRSQEWGREAIEMHENGSTKNLLQMTDVYYSPTSVRNPELERNGLYPAYTGLPGSRHSCIFPGQYNPSFISDESRRRDYF

Legend:
GST-KRIT1 FERM = GST-KRIT1 FERM (human, UniProt O00522 420-734); assay: pull-down
[1] = biological target: KRIT1 FERM domain, KRIT1(417-736) (human, UniProt O00522 417-736); assay: ITC
KRIT1 FERM domain, KRIT1(417-736), sequence (O00522 417-736): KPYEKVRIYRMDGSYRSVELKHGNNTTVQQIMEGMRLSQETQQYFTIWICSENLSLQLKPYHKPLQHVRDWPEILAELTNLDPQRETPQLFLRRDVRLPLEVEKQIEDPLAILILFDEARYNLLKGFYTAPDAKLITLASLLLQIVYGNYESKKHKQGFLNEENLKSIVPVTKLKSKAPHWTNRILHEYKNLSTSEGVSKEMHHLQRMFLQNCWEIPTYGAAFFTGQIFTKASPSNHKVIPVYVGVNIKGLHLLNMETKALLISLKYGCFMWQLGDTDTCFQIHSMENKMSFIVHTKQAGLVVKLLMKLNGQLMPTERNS

[2] = biological target: KRIT1(L717,721A) FERM protein (human, UniProt O00522 420-734, L717A | L721A); assay: ITC
KRIT1(L717,721A) FERM protein, sequence (O00522 420-734 L717A/L721A): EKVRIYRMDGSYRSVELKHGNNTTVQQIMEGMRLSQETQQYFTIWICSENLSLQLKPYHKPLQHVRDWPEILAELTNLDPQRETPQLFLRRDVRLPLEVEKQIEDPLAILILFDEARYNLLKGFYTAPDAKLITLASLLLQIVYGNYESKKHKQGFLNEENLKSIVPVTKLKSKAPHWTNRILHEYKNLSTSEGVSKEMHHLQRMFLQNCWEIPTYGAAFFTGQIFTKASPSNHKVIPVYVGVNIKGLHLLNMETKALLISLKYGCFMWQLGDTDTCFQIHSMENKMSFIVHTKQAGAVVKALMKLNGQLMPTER

GST-KRIT1 FERM, sequence (O00522 420-734): as the sequence (O00522 420-734 L717A/L721A) above, with A298L, A302L counted along it

Binder	binding result (GST-KRIT1 FERM)	stoichiometry N [1]	fold reduction in affinity against wild type [2] [fold]
B1	binds	–	–
SRHSCIFPGQYNPSFISDESRRRDYF (peptide, UniProt Q9ULI3 1356-1381, looked up) [recombinant human HEG1 C26 peptide (residues 1,356-1,381)]	–	1.01	> 100
